# Assay results as given in PMC10995623, “Apple E3 ligase MdPUB23 mediates ubiquitin-dependent degradation of MdABI5 to delay ABA-triggered leaf senescence”.
# T1: MdABI5 (Malus domestica? (apple), UniProt A0A498IDK6 1-461)
# T1 sequence: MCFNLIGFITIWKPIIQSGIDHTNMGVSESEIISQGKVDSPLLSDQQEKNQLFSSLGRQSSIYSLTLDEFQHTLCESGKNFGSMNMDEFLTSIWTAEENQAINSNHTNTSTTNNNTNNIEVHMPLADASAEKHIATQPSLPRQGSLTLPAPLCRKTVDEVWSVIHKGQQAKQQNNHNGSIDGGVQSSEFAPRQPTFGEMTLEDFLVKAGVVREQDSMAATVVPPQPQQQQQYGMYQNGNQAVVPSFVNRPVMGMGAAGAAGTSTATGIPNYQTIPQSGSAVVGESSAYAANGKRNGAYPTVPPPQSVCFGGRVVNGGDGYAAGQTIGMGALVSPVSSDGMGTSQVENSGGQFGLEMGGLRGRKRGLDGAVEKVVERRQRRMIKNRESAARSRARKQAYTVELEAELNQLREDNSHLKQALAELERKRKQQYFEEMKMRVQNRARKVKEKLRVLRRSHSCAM
# B1: MdSAG18 promoter probe (dsDNA)
# DNA 1: GGGGGGGGTCCACGTGGGTCACCAAC
# DNA 2: GTTGGTGACCCACGTGGACCCCCCCC
# Target: T1, MdABI5
# Assay: EMSA; MdABI5 alone; Beyotime EMSA/Gel-Shift Kit binding buffer (composition, salt and pH not given), 24 C, 30 min, biotin-labelled probe
# Conditions: protein: recombinant; chain copies: 2; label: biotin; blunt
binder,measurement,value
B1,binding result,no binding
